Test results as given in article PMC7494816, “Stoichiometry of Rtt109 complexes with Vps75 and histones H3-H4” (Life Science Alliance, 2020).

Legend:
[1] = biological target: the molecule itself; assay: AUC; sedimentation velocity, van Holde–Weischet analysis; 7.5 μM Vps75 with 0, 0.5 and 1.0 equivalent of Rtt109; 20 mM Tris pH 7.5, 150 mM NaCl, 0.5 mM TCEP, 20°C
[2] = biological target: T1, Xenopus laevis histones H3-H4 (wild type), refolded (Xenopus laevis, UniProt P84233 1-136; P62799 1-103); assay: AUC; sedimentation velocity; 0.5 or 1 equivalent of H3-H4 or H3DM-H4 titrated against Vps75–Rtt109 reconstituted at 2:2 or 2:1 (relative to 7.5 μM Vps75), with 2:2 mixes of Vps75 and histones for reference; 20 mM Tris pH 7.5, 150 mM NaCl, 0.5 mM TCEP, 20°C; conditions: both partners purified
T1 construct: histone H3, Xenopus laevis, wild type; histone H4, Xenopus laevis; One H3-H4 dimer is the unit used for concentrations and equivalents; it can form the (H3-H4)2 tetramer; also called (H3-H4)2 tetramer; H3-H4 dimer; source: bought unfolded: the Histone Source at Colorado State University

[3] = biological target: the molecule itself; assay: AUC; sedimentation velocity, van Holde–Weischet analysis; 7.5 μM Vps75 with 0, 0.5 and 1.0 equivalent of Rtt109; 20 mM Tris pH 7.5, 300 mM NaCl, 0.5 mM TCEP, 20°C
[4] = biological target: the molecule itself; assay: SEC-MALS; anion exchange peaks P1, P2, P3 of co-expressed, co-purified Vps75–Rtt109, 20 μM; Superdex 200 Increase 10/300 GL; 20 mM Tris–HCl pH 7.5, 300 mM NaCl, 0.5 mM TCEP

| binding result [2] | Binder | stoichiometry N [1] | stoichiometry N [3] | stoichiometry N [4] |
| --- | --- | --- | --- | --- |
| binds | Vps75 (Saccharomyces cerevisiae), individually expressed and purified (natural protein, UniProt P53853 1-264, looked up, Vps75, histone chaperone, Saccharomyces cerevisiae; also called Vps75 dimer; Vps75 tetramer; source: individually expressed and purified as previously described (Park et al, 2008)) MMSDQENENEHAKAFLGLAKCEEEVDAIEREVELYRLNKMKPVYEKRDAYIDEIAEFWKIVLSQHVSFANYIRASDFKYIDTIDKIKVEWLALESEMYDTRDFSITFHFHGIEGDFKEQQVTKVFQIKKGKDDQEDGILTSEPVPIEWPQSYDSINPDLIKDKRSPEGKKKYRQGMKTIFGWFRWTGLKPGKEFPHGDSLASLFSEEIYPFCVKYYAEAQRDLEDEEGESGLSADGDSEDDDGSLGEVDLPLSDEEPSSKKRKV | 4 chains of Vps75 (tetramer) | 2 chains of Vps75 (dimer) | – |
| – | Vps75 co-expressed with his–Rtt109 from pRSFDuet-1 (natural protein, Saccharomyces cerevisiae, UniProt P53853 1-264, looked up, Vps75, Saccharomyces cerevisiae; multiple cloning site 2 of pRSFDuet-1; source: E. coli Rosetta (DE3) pLysS, co-expressed with his–Rtt109, in lysate; co-purified (HisTrap, MonoQ)) MMSDQENENEHAKAFLGLAKCEEEVDAIEREVELYRLNKMKPVYEKRDAYIDEIAEFWKIVLSQHVSFANYIRASDFKYIDTIDKIKVEWLALESEMYDTRDFSITFHFHGIEGDFKEQQVTKVFQIKKGKDDQEDGILTSEPVPIEWPQSYDSINPDLIKDKRSPEGKKKYRQGMKTIFGWFRWTGLKPGKEFPHGDSLASLFSEEIYPFCVKYYAEAQRDLEDEEGESGLSADGDSEDDDGSLGEVDLPLSDEEPSSKKRKV | – | – | 2 chains of Vps75 (dimer) |
